# Source: patent EP2830663B1 (Sorrento Therapeutics, Inc., dated 2019)
# Biological target: VEGFR2 on HUVECs (UniProt P35968 20-1356, limits assumed)
# Experiment: cell-based or functional assay
# VEGFR2 on HUVECs, sequence (P35968 20-1356 limits assumed): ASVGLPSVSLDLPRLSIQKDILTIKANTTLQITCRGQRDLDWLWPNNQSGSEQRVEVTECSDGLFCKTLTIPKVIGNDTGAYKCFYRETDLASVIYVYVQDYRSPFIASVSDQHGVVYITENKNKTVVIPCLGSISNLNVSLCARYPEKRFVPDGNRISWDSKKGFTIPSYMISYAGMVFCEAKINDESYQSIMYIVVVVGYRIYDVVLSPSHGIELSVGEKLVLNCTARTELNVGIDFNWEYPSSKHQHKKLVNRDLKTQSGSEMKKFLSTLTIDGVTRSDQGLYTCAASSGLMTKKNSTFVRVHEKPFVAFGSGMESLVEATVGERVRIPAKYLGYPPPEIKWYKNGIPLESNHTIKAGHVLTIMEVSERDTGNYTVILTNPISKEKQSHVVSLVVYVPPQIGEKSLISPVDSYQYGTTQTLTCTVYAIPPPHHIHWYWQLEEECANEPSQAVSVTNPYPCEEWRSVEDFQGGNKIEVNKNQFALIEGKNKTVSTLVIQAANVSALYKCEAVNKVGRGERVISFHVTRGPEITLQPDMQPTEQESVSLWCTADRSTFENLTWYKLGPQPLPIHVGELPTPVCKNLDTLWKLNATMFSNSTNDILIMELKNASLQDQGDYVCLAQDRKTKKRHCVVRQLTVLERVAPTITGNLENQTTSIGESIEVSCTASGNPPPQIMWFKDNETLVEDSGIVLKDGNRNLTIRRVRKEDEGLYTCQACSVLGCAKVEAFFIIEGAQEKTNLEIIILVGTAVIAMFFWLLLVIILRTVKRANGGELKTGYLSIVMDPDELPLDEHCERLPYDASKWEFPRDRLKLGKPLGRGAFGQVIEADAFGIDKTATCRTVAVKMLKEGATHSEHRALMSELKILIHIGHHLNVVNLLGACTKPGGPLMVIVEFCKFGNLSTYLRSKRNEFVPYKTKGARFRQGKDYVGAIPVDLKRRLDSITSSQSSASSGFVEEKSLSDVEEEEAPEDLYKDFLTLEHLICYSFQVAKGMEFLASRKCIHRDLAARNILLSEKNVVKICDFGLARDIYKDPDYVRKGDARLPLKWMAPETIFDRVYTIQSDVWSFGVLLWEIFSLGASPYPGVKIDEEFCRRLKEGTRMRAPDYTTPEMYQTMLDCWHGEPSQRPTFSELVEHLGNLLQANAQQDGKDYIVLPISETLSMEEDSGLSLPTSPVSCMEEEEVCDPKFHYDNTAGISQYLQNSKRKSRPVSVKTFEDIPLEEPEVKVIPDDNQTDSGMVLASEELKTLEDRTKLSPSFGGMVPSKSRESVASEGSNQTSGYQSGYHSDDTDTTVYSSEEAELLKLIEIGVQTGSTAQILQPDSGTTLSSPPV
binder,measurement,value
"VK-B8 (antibody, V domains shown) VH: QVQLVQSGAEVKKPGSSVKVSCKAYGGTFGSYGVSWVRRAPGQGLEWMGRLIPIFGTRDYAQKFQGRVTLTADESTNTAYMELSSLRSEDTAVYYCARDGDYYGSGSYYGMDVWGQGTLVTVSS VL: ETTLTQSPATLSVSPGERATVSCRASQSLGSNLGWFQQKPGQAPRLLIYGASTRATGIPARFSGSGSGTEFTLTISSLQSEDFAVYFCQQYNDWPITFGQGTRLEIK","IC50, inhibition of VEGF-induced HUVEC cell migration (Figure 14)",530 pM
same,"IC50, inhibition of VEGF-induced HUVEC cell proliferation (Figure 13)",14900 pM
same,"IC50, inhibition of VEGF-induced HUVEC migration (modified Boyden chamber)",500 pM
same,"IC50, inhibition of VEGF-induced HUVEC proliferation",14000 pM
same,"IC50, inhibition of VEGF-induced p44/p42 MAPK (Erk1/2) phosphorylation in HUVECs (ELISA)",80 pM
